In patent publication US20100029573A1 (IMMATICS BIOTECHNOLOGIES, published 2010):

Tests used:
[1] = molecular target: MHC-A*02 tetramers complexed with the peptide … (human); assay: double tetramer staining, flow cytometry
[2] = molecular target: T1, HLA-B*0702 (human); assay: peptide-pulsed KM22 cells; recombinant B*0702 tetramers made with the peptide
T1 construct: MHC class I molecule without the peptide
Description: For the CTL assays, KM22 and JY tumor cell lines were used as target cells. Peptide-pulsed cells were pulsed with 50 μg/mL peptide for 2 hours. […] Then, 10⁴ cells/well were added to a 96-well round bottom plate. Various numbers of CTL were added to obtain an end volume of 200 μL, with subsequent incubation for 4 hrs at 37° C. Then, supernatants (500 μL/well) were harvested and counted in a beta-plate counter. Specific lysis was calculated in percent as follows: 100×(experimental release−spontaneous release/maximum release−spontaneous release). Each, spontaneous and maximum release were determined in presence of either medium or 2% Triton X-100.
Cell lines KM22 and JY are HLA-B*07 positive.

[3] = molecular target: T1, HLA-B*0702; assay: recombinant B*0702 complexed with peptide, tetramer and microspheres
From the text: Predetermined avidity of human CD8 T cells expanded on calibrated MHC/anti-CD28-coated microspheres. J. Immunol. […] Each dot represents the percentage of tetramer+among CD8+ lymphocytes from one well.

| percent of stimulated cells binding the tetramer [1] [%] | Molecule | other results |
| --- | --- | --- |
| 8 | CD8-positive T cells stimulated with RGS-5 peptide …/MHC-A*02 tetramer complexes |  |
| 19.3 | CD8-positive T cells stimulated with melan-A peptide/MHC-A*02 tetramer complexes |  |
|  | FPSLREAAL (also called MAGEA1; MAGE-1) | binding result [2]: binds |
|  | IARNLTQQL (also called ADFP) | binding result [3]: binds |
